From patent US20030236190A1
No end group written: not given here.

Columns and labels:
[1] = target: soluble human insulin receptor-immunoglobulin heavy chain chimera (sIR-Fc) (human), P06213; test: fluorescence polarization competition with FITC-RP9 for sIR-Fc; settings: remark: other sources report otherwise
[2] = target: Insulin receptor prepared according to Bass et al., 1996: soluble human insulin receptor-immunoglobulin heavy chain chimera (human) (UniProt P06213); test: phage ELISA, vs IGF-1R
[3] = target: Insulin receptor prepared according to Bass et al., 1996: soluble human insulin receptor-immunoglobulin heavy chain chimera (human) (UniProt P06213); test: phage ELISA vs milk
[4] = target: T1, Soluble IGF-1R (R&D Systems, Cat. # 391-GR/CF); recombinant human IGF-1R (human), P08069; test: phage ELISA vs milk
[5] = target: T2, Insulin receptor prepared according to Bass et al., 1996: soluble human insulin receptor-immunoglobulin heavy chain chimera (human), P06213; test: phage ELISA vs milk
[6] = target: T2, Insulin receptor prepared according to …; test: phage ELISA, vs IGF-1R
[7] = target: T1, Soluble IGF-1R (R&D Systems, Cat. # …); test: phage ELISA, vs IR
Soluble IGF-1R [8] = target: Soluble IGF-1R (UniProt P08069)
Soluble IGF-1R [9] = target: Soluble IGF-1R (UniProt P08069); test: phage ELISA; ratio over background for IGF-1R divided by that for IR
[10] = target: soluble human insulin mini-receptor (mIR) (human) (UniProt P06213); test: FP competition vs FITC-RP9, mIR

B1: C1 (peptide)
peptide: CWARPCGDAANFYDWFVQQAS
IC50 [1]: 52 nM

B2: H2CA-4-E9-IGFR (peptide)
peptide: RGAVAGFHDQFYDWFDRQVSRVHKFG
IR/IGF-1R Comparison [2]: 0.3 | Ratio over Background [3]: 1.9 fold

B3: B6Hα-1-B5-IR (peptide)
peptide: CCTTEMVVMDARDDPFYHKLSELVTGG
IR/IGF-1R Comparison [2]: 0 | Ratio over Background [3]: 1 fold

B4: 20E2B-2-B11-IGFR (peptide)
peptide: VVTPVNFYRALEALVRGXRLG
modifications: not fully specified; printed as VVTPVNFYRALEALVRG.RLG; X: residue not identified in the source
Ratio over Background [4]: 10.6 fold | Ratio over Background [5]: 1.1 fold | IR/IGF-1R Comparison [6]: 0.1 | IGF-1R/IR Comparison [7]: 9.4

B5: 26L-3-G5-IR (peptide)
peptide: AETSAQVGWQRLWSVWPGDHWSTLDPFYHKLSELLRESGA
modifications: not fully specified (residue 27, N-terminus, C-terminus); printed as AETSAQVGWQRLWSVWPGDHWSTLDP9YHKLSELLRESGA
ratio over background, IGF-1R (ratio over background) (Soluble IGF-1R [8]): 2 | IGF-1R/IR ratio comparison (Soluble IGF-1R [9]): 1.4

B6: A6L-0-H3-IR (peptide)
peptide: YRGMLVLGRISGGAGKAASERPARIGQKVSAVNFYDWFV
IR/IGF-1R Comparison [2]: 0.1 | Ratio over Background [3]: 2 fold

B7: H2C (peptide)
peptide: FHENFYDWFVQRVSKK
IC50 [10]: 770 nM
